Laboratory results reported in article PMC6220335, “Molecular structure of promoter-bound yeast TFIID” (Nature Communications, 2018).

B1: Taf12, subunit of Komagataella phaffii TFIID (natural protein, UniProt F2QSK7 1-609, looked up)
chain: MNQPPNQPQDNDSQVSSSGMQGGNSMNYSSSAPVNGAGQGPQPQQNSQGQNGKKPVGMQQAQIQLLARRYQLEMQKAHQLGPQTPQGAEHLQTATKIKHVLLSYQQQRQRQQGQVQGQGLSQPQGQNQAQGRVQQQTQGLSPDPGSHQGSPQFQQPHQVMMGSAQTAGTSIANPQAQSNISSQVSQMAAAKVNSASPPIPPKTVGTPTGTPVGTQPRGQVTIQQFQQVKSILEEFEKKLRTIEAAKRDQNLPEETLQKLLRQEAILKQRYAQTKATAYQMSQHLQRQQQALRAASAESAEVYVTGSASSPNMNVYNQQILTQQPQQQLQQQQLHQPQPQQPQPARQSPHLLIHQQQQQQQQQQQQQQQQQQHPVTHRPSNVSQTMPQPSQPLQSSTPSSAVGRNQSPGATPVTSVNAAAKPSPGTSSTSTLINQHILKPAPPPTEIPARLQVKPPQPAAMKIPNRPTLLGGSAISQPSLTTPVSIRPPPLEMEGDHVLQKRKLKELLRNVGADEGDGETVIDGDVEELLLDLADEFVTSVTSFACRLAKHRKVDNIDMRDVQLHLERNWNIRVPGYASDEIRSVRKFQPTAGYNQKVQGVAISKSVNKN
notes: Taf12, TFIID subunit of the yeast Komagataella phaffii (formerly Pichia pastoris); histone-fold domain modelled in the cryo-EM map; source: endogenous, K. phaffii nuclear extract; co-purified in TFIID by SBP-tagged Taf2 (streptavidin beads, sucrose gradient)
B2: Taf5, subunit of Komagataella phaffii TFIID (natural protein, UniProt F2QWD3 1-722, looked up)
chain: MKQEPGDSSDKSAPSGSITPQPKPPQQANVSNQQPQKPQQFSAADLNRIVLEYLNKKGYHKTESMLRMESSHIPAPPTNIPTPQTTNISRPTAPGRAPEYSDDPATIKRGYSILKSWCESSLDFYRPELEKFLYPVFVHCYLDLIARGYPSHAREFYDKFSKDHSVLHEYEISKLGGISLKEHLQENDVAKIFRSHKFKVLIGRTTFNLLLYFLNENDAVGGGVVLRLINQYIEPVITTEAIAVEREGELNLSEGIVELHTLNNTSIGGEQREISSVDAFNKKPVKLGKLQVDPEYSKELEAELKLKDEHEQAAQKKVSTTLLEEYRENFKVDPSDENNPSKDTLPLPLKSAQDLRNDIAMIQDSRAKIKLSAAQASLPSVCMYTFHNTNNDLTCLKFNDDSTMVASGFQDSFIKLWSIDGSPLRSLLKNDPYNQQNNDGVAVKGSRRLVGHSGAVYGVDFSPDNRYLISCSEDKTVRLWSLDTYTCLVSYKGHSSSVWDVKFSPMGHYFATASHDQTARLWSCDHIYPLRIFAGHLNDVDCVEFHPNSTYLFTGSSDKTARMWDIARGECVRVFMGHSGAINCLAVSPDGRWLASAGEDSVVCLWDISTGRRIKAMRGHGRSSIYSLAFSREGTVLVSTGADNSVRVWDVKKNTNSPSAQPEPINDVTAQGIQKKTEDLRRRKEIVATNDHMSVYFTKKTPVYTVHFTRRNLCLAGGVFGG
notes: Taf5, TFIID subunit of the yeast Komagataella phaffii (formerly Pichia pastoris); WD40 repeat and NTD (residues 99–243) modelled in the cryo-EM map; two copies in holo-TFIID; source: endogenous, K. phaffii nuclear extract; co-purified in TFIID by SBP-tagged Taf2 (streptavidin beads, sucrose gradient)

Columns and labels:
[1] = target: the molecule itself; assay: cryo-EM structure; purified TFIID (0.4 µM) with two-fold excess of TFIIA and 2.5–3-fold excess of pGAP promoter DNA, cross-linked with 0.1% glutaraldehyde; focused refinement of the lobes (Taf2 lobe 4.5 Å, Twin lobe 4.8 Å); homology models docked
[2] = target: B1; assay: cross-linking; 50 µg purified TFIID, 3 mM BS3, 2 h at 25 °C; trypsin, SCX fractionation, Orbitrap Fusion MS; pLink and Nexus, 5% FDR; details: both partners purified
[3] = target: B2; assay: as above; details: both partners purified
[4] = target: T1, Taf2 with C-terminal streptavidin-binding peptide tag, subunit of Komagataella phaffii TFIID (Komagataella phaffii, UniProt F2QRH9 1-1571); assay: affinity purification with mass spectrometry; TFIID purified from K. phaffii nuclear extract by the SBP tag at the C-terminus of Taf2 (streptavidin beads, 250 mM potassium acetate, elution with 10 mM biotin, 10–30% sucrose gradient); SDS-PAGE and mass spectrometry of the purified complex; details: partners not purified
T1 construct: Taf2, TFIID subunit of the yeast Komagataella phaffii (formerly Pichia pastoris); residues 36 to 1194 modelled in the cryo-EM map; bait of the purification; also called SBP-tagged Taf2; source: K. phaffii strain with SBP-tagged Taf2, nuclear extract; purified (streptavidin beads, biotin elution, sucrose gradient)

[5] = target: T1, Taf2 with C-terminal …; assay: cross-linking; 50 µg purified TFIID, 3 mM BS3, 2 h at 25 °C; trypsin, SCX fractionation, Orbitrap Fusion MS; pLink and Nexus, 5% FDR; details: both partners purified

Row | Binder | stoichiometry N [1] | binding result [3] | also measured
1 | Taf6, subunit of Komagataella phaffii TFIID (natural protein, UniProt F2QMA7 1-485, looked up, Taf6, TFIID subunit of the yeast Komagataella phaffii (formerly Pichia pastoris); HEAT repeats (residues 213–486) and histone-fold domain modelled in the cryo-EM map; two copies in holo-TFIID; source: endogenous, K. phaffii nuclear extract; co-purified in TFIID by SBP-tagged Taf2 (streptavidin beads, sucrose gradient)) MSKNSQRSSIPTSHTLWSPSDTVKDAAESLGIFNLNEEAAKNLAMDIEYRIHEILDQASKFMRHGKRRTLHTSDIDRALKVLNLEPLYGYDVSRPLVFKEALVGAGQNLYYVDDDEVDFEKLINEPLPKVPRFSTFTAHWLAIEGVQPAIPQNPSPNDIKNILPINRGSMENMFSLINDEVKEDTNEEFTSTGPSVSSNISNQKQGLEVKPLVKHVLSRELQLYFDKIVEVLLNQEETKEAELLRNSALQSVRADPGLHQLVPYFIQFISETITKNLKNISLLSTMLELIYSLLMNESLFLEPYVHAIIPCILTLLLAKKIGNVDDELQKQQQLALRELSASLLERVIEDFGSSYSTLKPRITRTLLRAFVSVNNTTPGTQYGALLGLRGLGSEVIRIVVLGNVINWSSTFLEKLQQEDQVFLIDTLIETLRVLTKEGKLVKDMKTENGIDNERLKQRVGDLIADRIQACDDAQDIYWGIFFGEV | 2 |  | 
2 | Taf4, subunit of Komagataella phaffii TFIID (natural protein, UniProt F2QWX2 1-411, looked up, Taf4, TFIID subunit of the yeast Komagataella phaffii (formerly Pichia pastoris); histone-fold domain modelled in the cryo-EM map; source: endogenous, K. phaffii nuclear extract; co-purified in TFIID by SBP-tagged Taf2 (streptavidin beads, sucrose gradient)) MSSTPDGSTPVDSGKRTSDQIDVGEYKRVKVERGNRSETVDSGLIDMSNSVGASLDIPTPDQLNPTNTGVQTPSLHQPGESISAHSLSLPGETSVGGSTGISRENTPQVRPDVSVSQSSSQLHQRNESFPGLSVSKSTTSLNKDTMFDNRKRLLGNNGANPNGQKSSDPEKLSDALTAAGVDLKEEESLLSQSTVIQQSRRQLSTLSSFLHPVHLATFMRRVMENNGLRNYVDHDTELLSYMSSACEGFMAGILTDSVILANHRKRPIKSKLKHSTTPRSDVSKVLRDIATKQKEREEQRVQKRVTLDIEGQEDDGKSKQDNEEVLHRAANATAMMMTSKSKKKKYSWMNADSGAQGGKTNSVLARGDSGIRYRDAREEPGLVLRDLLGALEGRRMCVANTVVKGYARMND |  | binds | binding result [2]: binds
3 | Taf1 (TBP-associated factor 1), subunit of Komagataella phaffii TFIID (natural protein, UniProt F2QMX2 1-1010, looked up, Taf1, TFIID subunit of the yeast Komagataella phaffii (formerly Pichia pastoris); native subunit of the purified complex; also called KpTaf1; source: endogenous, K. phaffii nuclear extract; co-purified in TFIID by SBP-tagged Taf2 (streptavidin beads, sucrose gradient)) MDVDFDNALNGQVGGFDQFFDGTTKHADNAIDFSDEEELADEEVGDAPQRRTDVDDEHKPPEGTYEMNLSGSEKEDLLFKNLEREASEGTELPLPTIGGLKVPNFDNNIGLNETISERNECNQISNSHFVKHLEKTMIRTQMLKYYYPSFQKSKPISFSSLFPPPLASFQLYDGRDCTPLLPLKALQEVDPDEKKIFKSSFSAHQSKGDKRSQSVKHIELMELESNNTQIPPRKQKETLKHLDRNIVLSTLSWDDTELLSDKLEERHNRNRTKPNFQQMQYDDWDVDTDMILEGTLDTSRLNLKLDMNDPHLLFLNQKHKPSPAGKMNARFPMNSKSFEMKFNISNDMQYQMLKDNYQSKIRSTIGNLSIDHSIPATILQTPFYKVKLSKQELRRFHRPVFNSRPNSTILFSKIKTRKKKKDRGKETKELFKKSVDLTLGDSASFFLLEYSEEQPVALSNFGMGSKLINYYRKLNDDDNSRPKLPVGETHVLGVQDRSPFWNFGFVEPGNLVPTFYNNMVRAPIFRHEPEETDFLLIRSSGGGISPRYFLRSLDHVFTVGQTFPVVDVPGPHSRKVTSTSKNRLKMIVYRVLNKNERHRLVVKDISIHFPDQNDMQNRQRLKEFMEYQKNGEDHGFWKIKGNEILPGFKEIQQMIQPEDIALLEAMQFGQLNLEDYDSLREETLIGQTTATTEEALQVQMAPWSTTKNFIQATQGKAMLQVHGIGDPSKKGEAISFLRISMKGGFKSSMEDIVEKAEQMDNKKSQGHSYNVAVQQKMYDEEISRVWYAQQRALSKTSDMMERELGPTEAPTASSVYDDQNQITEMAKTLEEFVLSPLQTTVSSVKPASIKEKKHMKITRMVRDQNGILQRRTQLVTDQKVIAAYIQRKQEQEKAEIDAEKISFTNDEEQNRRAKKILEEELERLEKSKERRIARKKLKEGLPVVSSLSNTDSDARLSGKGIGKGKSTSRRCATCGALGHIRTNKACPMYYSAMNKSNPNMSDLPVYDIQY |  |  | binding result [4]: binds
4 | B1 |  | binds | 
5 | Taf8, subunit of Komagataella phaffii TFIID (natural protein, UniProt F2QT15 1-517, looked up, Taf8, TFIID subunit of the yeast Komagataella phaffii (formerly Pichia pastoris); putative helices placed in the cryo-EM map; also called KpTaf8; source: endogenous, K. phaffii nuclear extract; co-purified in TFIID by SBP-tagged Taf2 (streptavidin beads, sucrose gradient)) MADKSDDNQSLVSVSSASSGKENPNSVGQRSMNPTLSHEEQHDQEVQERYNTGKDLNITSQPECVPAMEVALKASVLLILSSLGVQASSLSIDHLTYITTKYIDRLVSELHRSTEIQRRRTIAKRDVQLVVDRGILDLEDVTLEYERLKLTRKRVKPSIEKLSKYASELKESASSVQVSENDKDAFFFFDIAEKISEFMPLRMKRKNYIPKWMPVLPPEHTYVATPQFTEVISDPKELREQLTAESRLGEKALQHLIGTKIVEDKKEDVGNENDNDIDKEIHHGEIDVESDHNLEKGPNGETNGVQSQPPKSMVSSKRFDIVAHAKHRLSVLEKRKRHQEQLLENRRKEIDGLVGQYLGYYATKKIEPPVSDIIVNIMNTEYYHVSREISKSEHRKQKIQESQQLKRRKLEDELQQELEHQTEDIDFEFNFDEDDVDMNKNLNENLNENENDDEQVLIEEDTSFDITNGDIEKTNQETPFTNGSSKQWDSNNAILDSTNSEPEPEPPIADLFNVDSS |  |  | binding result [5]: binds
6 | B2 | 2 |  | 
